The text below walks through data of paper doi:10.1101/2023.07.25.550453 (bioRxiv, 2023).

T1: CBP80ΔNLS (NCBP1), human (human, UniProt Q09161 20-790)
T1 sequence (looked up): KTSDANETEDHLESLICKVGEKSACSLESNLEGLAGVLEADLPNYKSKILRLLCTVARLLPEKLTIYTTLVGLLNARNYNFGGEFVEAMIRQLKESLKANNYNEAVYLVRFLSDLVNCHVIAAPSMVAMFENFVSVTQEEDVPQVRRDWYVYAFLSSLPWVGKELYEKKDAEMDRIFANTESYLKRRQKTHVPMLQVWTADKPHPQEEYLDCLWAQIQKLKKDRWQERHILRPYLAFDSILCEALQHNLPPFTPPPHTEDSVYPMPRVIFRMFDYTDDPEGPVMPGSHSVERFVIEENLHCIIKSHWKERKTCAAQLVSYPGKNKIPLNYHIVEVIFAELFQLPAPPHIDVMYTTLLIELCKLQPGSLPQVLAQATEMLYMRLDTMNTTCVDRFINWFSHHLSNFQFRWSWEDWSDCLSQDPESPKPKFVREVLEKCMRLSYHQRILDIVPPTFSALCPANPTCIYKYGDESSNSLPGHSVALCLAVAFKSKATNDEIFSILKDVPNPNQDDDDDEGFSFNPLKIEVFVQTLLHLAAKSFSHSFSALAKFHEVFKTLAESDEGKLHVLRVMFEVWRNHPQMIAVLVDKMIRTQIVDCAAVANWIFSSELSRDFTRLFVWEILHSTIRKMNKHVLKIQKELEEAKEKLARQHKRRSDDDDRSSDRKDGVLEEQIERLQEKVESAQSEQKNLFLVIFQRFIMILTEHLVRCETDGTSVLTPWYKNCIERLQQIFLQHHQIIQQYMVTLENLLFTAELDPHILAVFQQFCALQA

T2: nuclear cap-binding complex (CBC: CBP80ΔNLS + CBP20), human (human, UniProt Q09161 20-790; P52298 1-156)
T2 sequence 1: T1 sequence (looked up)
T2 sequence 2: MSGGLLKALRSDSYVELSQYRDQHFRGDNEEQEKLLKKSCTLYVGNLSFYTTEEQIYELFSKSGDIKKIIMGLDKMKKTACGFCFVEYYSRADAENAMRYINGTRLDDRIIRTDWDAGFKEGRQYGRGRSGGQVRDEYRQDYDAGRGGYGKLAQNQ

B1: CBP20 (NCBP2), human (natural protein)
chain: T2 sequence 2
B2: His-MBP-NCBP3^360-620 (domain or fragment, human, UniProt Q53F19 360-620, looked up)
chain: DQDMDADDRVVVEYHEELPALKQPRERSASRRSSASSSDSDEMDYDLELKMISTPSPKKSMKMTMYADEVESQLKNIRNSMRADSVSSSNIKNRIGNKLPPEKFADVRHLLDEKRQHSRPRPPVSSTKSDIRQRLGKRPHSPEKAFSSNPVVRREPSSDVHSRLGVPRQDSKGLYADTREKKSGNLWTRLGSAPKTKEKNTKKVDHRAPGAEEDDSELQRAWGALIKEKEQSRQKKSRLDNLPSLQIEVSRESSSGSEAES
B3: NELF-E^244-380 (domain or fragment, human, UniProt P18615 244-380, looked up)
chain: GPFRRSDSFPERRAPRKGNTLYVYGEDMTPTLLRGAFSPFGNIIDLSMDPPRNCAFVTYEKMESADQAVAELNGTQVESVQLKVNIARKQPMLDAATGKSVWGSLAVQNSPKGCHRDKRTQIVYSDDVYKENLVDGF
B4: NELF-E^244-380 (W345E) (domain or fragment, human, UniProt P18615 244-380, looked up)
chain: B3 chain with W102E
B5: MBP-ZC3H18^117-258 (domain or fragment)
chain: SSVTRELDEHELDYDEEVPEEPAPAVQEDEAEKAGAEDDEEKGEGTPREEGKAGVQSVGEKESLEAAKEKKKEDDDGEIDDGEIDDDDLEEGEVKDPSDRKVRPRPTCRFFMKGNCTWGMNCRFIHPGVNDKGNYSLITKAD
B6: His-MBP-PHAX^103-196 (domain or fragment, human, UniProt Q9H814 103-196, looked up)
chain: SQKPPVAGGKKINNIWGAVLQEQNQDAVATELGILGMEGTIDRSRQSETYNYLLAKKLRKESQEHTKDLDKELDEYMHGGKKMGSKEEENGQGH
B7: His-MBP-NCBP3^560-620 (domain or fragment, human, UniProt Q53F19 560-620, looked up)
chain: TKKVDHRAPGAEEDDSELQRAWGALIKEKEQSRQKKSRLDNLPSLQIEVSRESSSGSEAES
B8: NCBP3^560-620 (tag cleaved, cryo-EM sample) (domain or fragment, human, UniProt Q53F19 560-620, looked up)
chain: B7 chain

Where a chain is given by its changes, count along the chain named. Names may count otherwise. Where two headings read alike, the source gives them in different places.

Series [1] addresses PHAX^1-18 peptide (ARM 9-EDGQL), biotinylated (human) (UniProt Q9H814). As to the kind of experiment: BLI. Background: In BLI a coated tip is dipped into the sample, and binding shifts an interference pattern.
Series [2] deals with ZC3H18 double ARM motif peptide, biotinylated (human). Kind of series: BLI.
In series [3] the target is ARS2^147-871 (human). As to the kind of experiment: ITC.
The target in series [4] is full-length PHAX (human, UniProt Q9H814 1-394). As to the kind of experiment: cryo-EM structure.
Series [5] addresses T1, CBP80ΔNLS (NCBP1), human. As to the kind of experiment: cryo-EM structure.
In series [6] the target is ARS2^147-871 (human). As to the kind of experiment: ITC. The source holds these as a separate data set.
Series [7] deals with T2, nuclear cap-binding complex (CBC: …). Kind of series: pull-down.
Series [8] deals with CBP80 (delta NLS);CBP20;PHAX (human;human;human, UniProt Q09161;P52298;Q9H814 20-790;1-156;1-394, del1-19||). As to the kind of experiment: cryo-EM.
Series [9] addresses T2, nuclear cap-binding complex (CBC: …). As to the kind of experiment: ITC. Background: In ITC the heat of successive injections is recorded.
The target is the same in series [10]. As to the kind of experiment: SPR. In general terms: In SPR one partner is held on a chip, and binding of the other changes the refractive index at the surface.
Series [11] shares this target. Kind of series: ITC. The source holds these as a separate data set.
For series [12] the target is unchanged. As to the kind of experiment: ITC. The source holds these as a separate data set.
Series [13] has as its target B1. Kind of series: cryo-EM structure.

Sequence of CBP80 (delta NLS);CBP20;PHAX (Q9H814 whole entry, stated change not applied, one chain of several): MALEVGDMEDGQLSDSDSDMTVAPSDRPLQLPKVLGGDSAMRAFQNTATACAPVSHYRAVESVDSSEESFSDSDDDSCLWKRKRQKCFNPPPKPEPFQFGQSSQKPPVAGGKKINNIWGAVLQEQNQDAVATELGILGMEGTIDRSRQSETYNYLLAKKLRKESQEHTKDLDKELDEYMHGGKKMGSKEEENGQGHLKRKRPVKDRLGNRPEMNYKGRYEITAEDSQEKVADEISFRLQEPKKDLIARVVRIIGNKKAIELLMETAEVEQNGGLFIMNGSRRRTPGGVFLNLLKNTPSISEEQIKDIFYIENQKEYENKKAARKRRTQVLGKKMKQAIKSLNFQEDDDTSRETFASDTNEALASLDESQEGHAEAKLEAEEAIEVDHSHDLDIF
Sequence of full-length PHAX (human, UniProt Q9H814 1-394) (Q9H814 whole entry): as the sequence (Q9H814 whole entry, stated change not applied, one chain of several) above

Regarding ARS2^147-871 (domain or fragment), the dissociation constant (Kd) (usually the free concentration of one partner at which half of the binding sites on the other are occupied at equilibrium, for simple one-to-one binding) in [1] was 6100 nM; in series [2], 7700 nM.
“full-length PHAX (from UniProt Q9H814 1-394) (natural protein)” registered a dissociation constant Kd in [3] of 4100 nM.
For B1, the binding result in series [4] and in series [5] was “binds” throughout.
KESLEAAKEKKKEDDDGEIDDGEIDDDDLEEGEVKDPSD (domain or fragment) [MBP-ZC3H18^177-215] gave a dissociation constant Kd in [6] of 3500 nM.
B2: in series [7], the binding result is given as “binds”.
For the molecule AAUCUAUAAUAG (ssRNA, 5' m7Gppp cap) [capped 12-mer RNA (m7Gppp-AAUCUAUAAUAG)], the binding result in series [8] is on record as “binds”.
As for B3, in [9], the dissociation constant Kd is 113 nM.
Take B4: in series [9], the Kd was 1300 nM.
B5 had a Kd in [6] of 700 nM.
Take ESAWERGLRHAKEVLKKATIRKEQEPDFEEKRFTVTIGEDER (domain or fragment, human, UniProt Q86VM9 298-339, looked up) [His-MBP-ZC3H18^298-339]: in [10], the dissociation constant Kd turned out to be 150 nM.
For the molecule B6, in [11], the Kd worked out at 2400 nM.
In the case of TKKVDHRAPGAEEDDSELQRAWGALIKEKEQSRQKKSR (domain or fragment, human, UniProt Q53F19 560-597, looked up) [NCBP3^560-620 with C-terminal residues 598-620 removed], the Kd in series [9] turned out to be 222 nM.
For TKKVDHRAPGAEEDDSELQRAWGALIKEKEQ (domain or fragment, human, UniProt Q53F19 560-590, looked up) [NCBP3^560-620 truncated to residue 590], the Kd in series [9] was found to be 6000 nM.
Take B7: the results for the Kd in series [12] and in [11] were around 173 nM and around 115 nM, respectively.
Turning to B8, the binding result in series [13] was “binds”.
